Assay results as given in paper PMC3965691.

Target: GST-Pin1 (human Pin1, full length, fused to GST) (human) (UniProt Q13526)
Assay: pull-down

GST-Pin1 (human Pin1, full length, fused to GST) (human), sequence (Q13526 whole entry, the tested form may be a part): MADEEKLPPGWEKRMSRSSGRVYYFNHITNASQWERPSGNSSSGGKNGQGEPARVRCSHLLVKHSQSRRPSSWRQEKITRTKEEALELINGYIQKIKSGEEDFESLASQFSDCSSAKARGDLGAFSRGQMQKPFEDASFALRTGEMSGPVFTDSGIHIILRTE

Row | Substance | K0.5 [µM]
1 | His6-DI-2 (Drosophila phosphatase inhibitor-2) (natural protein) | 0.3
2 | His6-XI-2 (Xenopus phosphatase inhibitor-2) (natural protein) | 0.3
